According to paper PMC6895269:

What was measured:
[1] = test system: Rtf1 HMD74-184 (histone modification domain) (Saccharomyces cerevisiae); assay: EMSA; conditions: 50 mM Tris-HCl pH 7.5, 150 mM NaCl, 2 mM arginine, 0.01% CHAPS, 0.01% NP-40, 1 uM BSA, 3 nM nucleosome, 30 min on ice, 4-12% Tris-glycine native PAGE
[2] = target: wild-type X. laevis nucleosome (X. laevis); assay: native gel or EMSA; 3 nM nucleosomes with increasing recombinant HMD, 30 min on ice, 50 mM Tris-HCl pH 7.5, 150 mM NaCl, 2 mM arginine, 0.01% CHAPS, 0.01% NP-40, 1 μM BSA; 4-12% native PAGE, SYBR Green; Kd by non-linear least squares regression
[3] = target: acidic patch mutant X. laevis nucleosome (H2A E61A, E64A, D90A, E92A) (X. laevis); assay: as above

Substance: acidic patch mutant X. laevis nucleosome (H2A E61A, E64A, D90A, E92A)
- Kd ([1]; histone H2A E61A;E64A;D90A;E92A): 0.25 µM

Substance: recombinant HMD_(74-184) (Rtf1 histone modification domain) (from UniProt P53064 74-184) (domain or fragment)
- Kd [2]: 0.1 µM
- Kd [3]: 0.25 µM

Substance: wild-type X. laevis nucleosome
- Kd ([1]; wild-type histone octamer): 0.1 µM
